# ± gives the uncertainty stated by the source.
# B1: library; numbered along this chain (parent)
# chain: MEVVDPQQLGMFTEGELMSVGMDTFIHRIDSTEVIYQPRRKRAKLIGKYLMGDLLGEGSYGKVKEVLDSETLCRRAVKILKKKKLRRIPNGEANVKKEIQLLRRLRHKNVIQLVDVLYNEEKQKMYMVMEYCVCGMQEMLDSVPEKRFPVCQAHGYFCQLIDGLEYLHSQGIVHKDIKPGNLLLTTGGTLKISDLGVAEALHPFAADDTCRTSQGSPAFQPPEIANGLDTFSGFKVDIWSAGVTLYNITTGLYPFEGDNIYKLFENIGKGSYAIPGDCGPPLSDLLKGMLEYEPAKRFSIRQIRQHSWFRKKHPPAEAPVPIPPSPDTKDRWRSMTVVPYLEDLHGADEDEDLFDIEDDIIYTQDFTVPGQVPEEEASHNGQRRGLPKAVCMNGTEAAQLSTKSRAEGRAPNPARKACSASSKIRRLSACKQQ
# Variants of: B1
# Experiment: STK11 functional score (HeLa growth suppression), rescaled enrichment; synonymous median = 1, nonsense median = 0 (normalised score)
# Details: with HeLa; variant type: missense
# Procedure, shortened: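 In HeLa, Bxb1 integrated POPCode codon-randomised libraries of codon-optimised STK11 at an AAVS1 landing pad; three regions were each transfected three times. Integrants, marked as BFP-negative and mCherry-positive, were FACS-sorted 4–5 days after electroporation and expanded for about two weeks before tiled gDNA amplicons were sequenced on NextSeq (~2 million reads per tile). Each functional score is a post/pre-selection log ratio corrected to wild type, rescaled to the synonymous and nonsense medians, and merged across codons and replicate transfections, with error estimated by bootstrapping.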
row,Variant,STK11 functional score
1,MEVVDPQQLGMFTEGELMSVGMDTFIHRIDSTEVIYQPRRKRAKLIGKYLMGDLLGEGSYGKVKEVLDSETLCRRAVKILKKKKLRRIPNGEANVKKEIQLLRRLRHKNVIQLVDVLYNEEKQKMYMVMEYCVCGMQEMSDSVPEKRFPVCQAHGYFCQLIDGLEYLHSQGIVHKDIKPGNLLLTTGGTLKISDLGVAEALHPFAADDTCRTSQGSPAFQPPEIANGLDTFSGFKVDIWSAGVTLYNITTGLYPFEGDNIYKLFENIGKGSYAIPGDCGPPLSDLLKGMLEYEPAKRFSIRQIRQHSWFRKKHPPAEAPVPIPPSPDTKDRWRSMTVVPYLEDLHGADEDEDLFDIEDDIIYTQDFTVPGQVPEEEASHNGQRRGLPKAVCMNGTEAAQLSTKSRAEGRAPNPARKACSASSKIRRLSACKQQ [L140S],-0.236 ± 0.08
2,MEVVDPQQLGMFTEGELMSVGMDTFIHRIDSTEVIYQPRRKRAKLIGKYLMGDLLGEGSYGKVKEVLDSETLCRRAVKILKKKKLRRIPNGEANVKKEIQLLRRLRHKNVIQLVDVLYNEEKQKMYMVMEYCVCGMQEMLDSVPEKRFPVCQAHGYFCQLIDGLEYLHSQGIVHKDIKPGNLLLTTGGTLKISDLGVAEALHPFAADDTCRTSQGSPAFQPPEIANGLDTFSGFKVDIWSAGVTLYNITTGLYPFEGDNIYKLFENIGKGSYAIPGDCGPPLSDLLKGMLEYEPAKRFSIRQIRQHSWFRKKHPPAEAPVPIPPSPDTKDRWRSMTVVPYLEDLHGADEDEDLFDIEDDIIYTQDFTVPGQVPEEEASHNGQRRGLPKAVCMNGTEAAQLSTKSRAEGRAPNPARKACKASSKIRRLSACKQQ [S419K],1.39 ± 0.21
3,MEVVDPQQLGMFTEGELMSVGMDTFIHRIDSTEVIYQPRRKRAKLIGKYLMGDLLGEGSYGKVKEVLDSETLCRRAVKILKKKKLRRIPNGEANVKKEIQLLRRLRHKNVIQLVDVLYNEEKQKMYMVMEYCVCGMQEMLDSVPEKRFPVCQAHGYFCQLIDGLEYLHSQGIVHKDIKPGNLLLTTGGTLKISDLGVAEALHPFAADDTCRTSQGSPAFQPPEIANGLDTFSGFKVDIWSAGVTLYNITTGLYPFEGDNIYKLFENIGKGSYAIPGDCGPPLSDLLKGMLEYEPAKRFSIRQIRQHSWFRKKHPPAEAPVPIPPSPDTKDRWRSMTVVPYMEDLHGADEDEDLFDIEDDIIYTQDFTVPGQVPEEEASHNGQRRGLPKAVCMNGTEAAQLSTKSRAEGRAPNPARKACSASSKIRRLSACKQQ [L341M],1.63 ± 0.46
4,MEVVDPQQLGMFTEGELMSVGMDTFIHRIDSTEVIYQPRRKRAKLIGKYLMGDLLGEGSYGKVKEVLDSETLCRRAVKILKKKKLRRIPNGEANVKKEIQLLRRLRHKNVIQLVDVLYNEEKQKMYMVMEYCVCGMQEMLDSVPEKRFPVCQAHGYFCQLIDGLEYLHSQGIVHKDIKPGNLLLTTGGTLKISDLGVAEALHPFAADDTCRTSQGSPAFQPPEIANGLDTFSGFKVDIWSAGVTLYNITTGLYPFEGDNIYKLFENIGKGSYAIPGDCGPPLSDLLKGMLEIEPAKRFSIRQIRQHSWFRKKHPPAEAPVPIPPSPDTKDRWRSMTVVPYLEDLHGADEDEDLFDIEDDIIYTQDFTVPGQVPEEEASHNGQRRGLPKAVCMNGTEAAQLSTKSRAEGRAPNPARKACSASSKIRRLSACKQQ [Y292I],1.09 ± 0.13
5,MEVVDPQQLGMFTEGELMSVGMDTFIHRIDSTEVIYQPRRKRAKLIGKYLMGDLLGEGSYGKVKEVLDSETLCRRAVKILKKKKLRRIPNGEANVKKEIQLLRRLRHKNVIQLVDVLYNEEKQKMYMVMEYCVCGMQEMLDSVPEKRFPVCQAHGYFCQLIDGLEYLHSQGIVHKDIKPGNLLLTTGGTLKISDLGVAEALHPFAADDTCRTSQGSPAFQPPEIANGLDTFSGFKVDIWSAGVTLYNITTGLYPFEGDNIYKLFENIGKGSYAIPGDCGPPLSDLLKGMLEYEPAKRFSIRQIRQHSWFRKKHPPAEQPVPIPPSPDTKDRWRSMTVVPYLEDLHGADEDEDLFDIEDDIIYTQDFTVPGQVPEEEASHNGQRRGLPKAVCMNGTEAAQLSTKSRAEGRAPNPARKACSASSKIRRLSACKQQ [A318Q],1.61 ± 0.29
6,MEVVDPQQLGMFTEGELMSVGMDTFIHRIDSTEVIYQPRRKRAKLIGKYLMGDLLGEGSYGKVKEVLDSETLCRRAVKILKKKKLRRIPNGEANVKKEIQLLRRLRHKNVIQLVDVLYNEEKQKMYMVMEYCVCGMQEMLDSVPEKRFPVCQAHGYFCQLIDGLEYLHSQGIVHKDIKPGNLLLTTGGTLKISDLGVAEALHPFAADDTCRTSQGSPAFQPPEIANGLDTFSGFKVDIWSAGVTLYNITTGLYPFEGDNIYKLFENIGKGSYAIPGDCGPPLSDLLKGMLEYEPAKLFSIRQIRQHSWFRKKHPPAEAPVPIPPSPDTKDRWRSMTVVPYLEDLHGADEDEDLFDIEDDIIYTQDFTVPGQVPEEEASHNGQRRGLPKAVCMNGTEAAQLSTKSRAEGRAPNPARKACSASSKIRRLSACKQQ [R297L],-0.121 ± 0.1
7,MEVVDPQQLGMFTEGELMSVGMDTFIHRIDSTEVIYQPRRKRAKLIGKYLMGDLLGEGSYGKVKEVLDSETLCRRAVKILKKKKLRRIPNGEANVKKEIQLLRRLRHKNVIQLVDVLYNEEKQKMYMVMEYCVCGMQEMLDSVPEKRFPVCQAHGYFCQLIDGLEYLHSQGIVHKDIKPGNLLLTTGGTLKISDLGVAEALHPFAADDTCRTSQGSPAFQPPEIANGLDTFSGFKVDIWSAGVTLYNITTGLYPFEGDNIYKLFENIGKGSYAIPGDCGPPLSDLLKGMLEYEPAKRFSIRQIRQHSWFRKKHPPAEAPVPIPPSPDTKDRWRSMTVVPYLEDLHGADEDEDLFDIEDDIIYTQDFTVPGQVPEEEASHNGQRRGLPKAVCMNGTEAVQLSTKSRAEGRAPNPARKACSASSKIRRLSACKQQ [A398V],1.01 ± 0.2
8,MEVVDPQQLGMFTEGELMSVGMDTFIHRIDSTEVIYQPRRKRAKLIGKYLMGDLLGEGSYGKVKEVLDSETLCRRAVKILKKKKLRRIPNGEANVKKEIQLLRRLRHKNVIQLVDVLYNEEKQKMYMVMEYCVCGMQEMLDSVPEKRFPVCQAHGYFCQLIDGLEYLHSQGIVHKDIKPGNLLLTTGGTLKISDLGVAEALHPFAADDTCRTSQGSPAFQPPEIANGLDTFSGFKVDIWSAGVTLYNITTGLYPFEGDNIYKLFENIGKGSYAIPGDCGPPLSDLLKGMLEYEPAKRFSIRQIRQHSWFRKKHPPAEAPVPIPPSPDTKDRWRSMTVVPYLEDLHGADEDEDLFDIEDDIILTQDFTVPGQVPEEEASHNGQRRGLPKAVCMNGTEAAQLSTKSRAEGRAPNPARKACSASSKIRRLSACKQQ [Y362L],1.17 ± 0.24
9,MEVVDPQQLGMFTEGELMSVGMDTFIHRIDSTEVIYQPRRKRAKLIGKYLMGDLLGEGSYGKVKEVLDSETLCRRAVKILKKKKLRRIPNGEANVKKEIQLLRRLRHKNVPQLVDVLYNEEKQKMYMVMEYCVCGMQEMLDSVPEKRFPVCQAHGYFCQLIDGLEYLHSQGIVHKDIKPGNLLLTTGGTLKISDLGVAEALHPFAADDTCRTSQGSPAFQPPEIANGLDTFSGFKVDIWSAGVTLYNITTGLYPFEGDNIYKLFENIGKGSYAIPGDCGPPLSDLLKGMLEYEPAKRFSIRQIRQHSWFRKKHPPAEAPVPIPPSPDTKDRWRSMTVVPYLEDLHGADEDEDLFDIEDDIIYTQDFTVPGQVPEEEASHNGQRRGLPKAVCMNGTEAAQLSTKSRAEGRAPNPARKACSASSKIRRLSACKQQ [I111P],1.25 ± 0.36
10,MEVVDPQQLGMFTEGELMSVGMDTFIHRIDSTEVIYQPRRKRAKLIGKYLMGDLLGEGSYGKVKEVLDSETLCRRAVKILKKKKLRRIPNGEANVKKEIQLLRRLRHKNVIQLVDVLYNEEKQKMYMVMEYCVCGMQEMLDSVPEKRFPVCQAHGYFCQLIDGLEYLHSQGIVHKDIKPGNLLLTTGGTLKISDLGVAEALHPFAADDTCRTSQGSPAFQPPEIANGLDTFSGFKVDIWSAGVTLYNITTGLYPFEGDNIYKLFENIGKGSYAIPGDCGPPLSDLLKGMLEYEPAKRFSIRQIRQHSWFRKKHPPAEAVVPIPPSPDTKDRWRSMTVVPYLEDLHGADEDEDLFDIEDDIIYTQDFTVPGQVPEEEASHNGQRRGLPKAVCMNGTEAAQLSTKSRAEGRAPNPARKACSASSKIRRLSACKQQ [P319V],0.772 ± 0.46
11,MEVVDPQQLGMFTEGELMSVGMDTFIHRIDSTEVIYQPRRKRAKLIGKYLMGDLLGEGSYGKVKEVLDSETLCRRAVKILKKKKLRRIPNGEANVKKEIQLLRRLRHKNVIQLVDVLYNEEKQKMYMVMEYCVCGMQEMLDSVPEKRFPVCQAHGYFCQLIDGLEYLHSQGIVHKDIKPGNLLLTTGGTLKISDLGVAEALHPFAADDTCRTSQGSPAFQPPEIANGLDTFSGFKVDIWSAGVTLYNITTGLYPFEGDNIYKLFENIGKGSYAIPGDCGPPLSDLLKGMLEYEPAKRFSIRQIRQHSWFRKKHPPAEAPVPIPKSPDTKDRWRSMTVVPYLEDLHGADEDEDLFDIEDDIIYTQDFTVPGQVPEEEASHNGQRRGLPKAVCMNGTEAAQLSTKSRAEGRAPNPARKACSASSKIRRLSACKQQ [P324K],0.708 ± 0.7
12,MEVVDPQQLGMFTEGELMSVGMDTFIHRIDSTEVIYQPRRKRAKLIGKYLMGDLLGEGSYGKVKEVLDSETLCRRAVKILKKKKLRRIPNGEANVKKEIQLLRRLRHKNVIQLVDVLYNEEKQKMYMVMEYCVCGMQEMLDSVPEKRFPVCQAHGYFCQLIDGLEYLHSQGIVHKDIKPGNLLLTTGGTLKISDLGVAEALHPFAADDTCRTSQGSPAFQPPEIANGLDTFSGFKVDIWSAGVTLYNITTGLYPFEGRNIYKLFENIGKGSYAIPGDCGPPLSDLLKGMLEYEPAKRFSIRQIRQHSWFRKKHPPAEAPVPIPPSPDTKDRWRSMTVVPYLEDLHGADEDEDLFDIEDDIIYTQDFTVPGQVPEEEASHNGQRRGLPKAVCMNGTEAAQLSTKSRAEGRAPNPARKACSASSKIRRLSACKQQ [D258R],1.29 ± 0.39
13,MEVVDPQQLGMFTEGELMSVGMDTFIHRIDSTEVIYQPRRKRAKLIGKYLMGDLLGEGSYGKVKEVLDSETLCRRAVKILKKKKLRRIPNGEANVKKEIQLLRRLRHKNVIQLVDVLYNEEKQKMYMVMEYCYCGMQEMLDSVPEKRFPVCQAHGYFCQLIDGLEYLHSQGIVHKDIKPGNLLLTTGGTLKISDLGVAEALHPFAADDTCRTSQGSPAFQPPEIANGLDTFSGFKVDIWSAGVTLYNITTGLYPFEGDNIYKLFENIGKGSYAIPGDCGPPLSDLLKGMLEYEPAKRFSIRQIRQHSWFRKKHPPAEAPVPIPPSPDTKDRWRSMTVVPYLEDLHGADEDEDLFDIEDDIIYTQDFTVPGQVPEEEASHNGQRRGLPKAVCMNGTEAAQLSTKSRAEGRAPNPARKACSASSKIRRLSACKQQ [V133Y],1.55 ± 0.39
14,MEVVDPQQLGMFTEGELMSVGMDTFIHRIDSTEVIYQPRRKRAKLIGKYLMGDLLGEGSYGKVKEVLDSETLCRRAVKILKKKKLRRIPNGEANVKKEIQLLRRLRHKNVIQLVDVLYNEEKQKMYMVMEYCVCGMQEMLDSVPEKRFPVCQAHGYFCQLIDGLEYLHSQGIVHKDIKPGNLLLTTGGTLKISDLGVAEALHPFAADDTCVTSQGSPAFQPPEIANGLDTFSGFKVDIWSAGVTLYNITTGLYPFEGDNIYKLFENIGKGSYAIPGDCGPPLSDLLKGMLEYEPAKRFSIRQIRQHSWFRKKHPPAEAPVPIPPSPDTKDRWRSMTVVPYLEDLHGADEDEDLFDIEDDIIYTQDFTVPGQVPEEEASHNGQRRGLPKAVCMNGTEAAQLSTKSRAEGRAPNPARKACSASSKIRRLSACKQQ [R211V],1.35 ± 0.2

# — the supplement of paper PMC12338614
